Assay results: US6051698, “Vascular endothelial growth factor (VEGF) nucleic acid ligand complexes”

B1: t22OMe (OH-12,22) (ssRNA)
RNA: GACGAUGCGGUAGGAAGAAUUGGAAGCGC
modifications: 2'-F pyrimidines, 2'-OMe purines except 2'-OH at A12, G22
B2: t22e (ssRNA)
RNA: GGUAGGAAGAAUUGGAAGCGCT
modifications: 2'-F pyrimidines, 2'-OH purines, 3'-3' dT cap [22 (3'-3' dT cap); 2'-F pyrimidines 3,12,13,19,21]
B3: t22 (ssRNA)
RNA: GACGAUGCGGUAGGAAGAAUUGGAAGCGCT
modifications: 2'-F pyrimidines, 2'-OH purines, 3'-3' dT cap [30 (3'-3' dT cap); 2'-F pyrimidines 3,6,8,11,20,21,27,29]
B4: t2 (ssRNA)
RNA: GGCGAACCGAUGGAAUUUUUGGACGCUCGCCT
modifications: 2'-F pyrimidines, 2'-OH purines, 3'-3' dT cap [32 (3'-3' dT cap); 2'-F pyrimidines 3,7,8,11,16,17,18,19,20,24,26,27,28,30,31]
B5: t44OMe (ssRNA)
RNA: CGGAAUCAGUGAAUGCUUAUACAUCCG
modifications: 2'-F pyrimidines, 2'-OMe purines except two 2'-OH purines

Columns and labels:
VEGF165 [1] = target: T1, VEGF165 (Homo sapiens, UniProt P15692-4 P15692-4:27-191); assay: filter; 37 C; settings: tags: R&D Systems, expressed in Sf21 insect cells, carrier-free; chain copies: 2
T1 sequence (P15692 other isoform, or with tags, fused parts or gaps): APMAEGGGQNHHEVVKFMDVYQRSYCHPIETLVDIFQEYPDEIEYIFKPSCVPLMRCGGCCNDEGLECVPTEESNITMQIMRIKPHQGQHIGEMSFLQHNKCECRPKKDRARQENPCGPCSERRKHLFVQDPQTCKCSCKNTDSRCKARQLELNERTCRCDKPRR
Experimental: Nucleic Acid Ligands radiolabeled during transcription by incorporation of α-[^32P]-labeled NTPs, or after synthesis using γ-[^32P]-ATP and T4 polynucleotide kinase, were incubated in low concentration (between 20 and 70 pM) with varying concentrations of VEGF or other growth factors at 37° C. for 15 minutes. Incubations were in TBS, PBS, or HEPES-buffered saline (HBS), pH 7.4, with or without the addition of supplemental divalent cations. Samples were passed through prewashed 0.45μ Type HA filters (Millipore) followed by a 5–10 ml wash with binding buffer. Filters were immersed in scintillant and counted to quantitate the amount of protein-bound RNA retained by each filter. The equilibrium dissociation constant (K_D) of Nucleic Acid Ligand binding to a specific protein was calculated from thc data points as described in Green et al. (1996) Biochem. 35: 14413–14424.

VEGF165 [2] = target: T1, VEGF165; assay: filter; EDTA, no divalents; Mg2+ does not rescue, Ca2+ fully restores; settings: tags: R&D Systems, expressed in Sf21 insect cells, carrier-free; chain copies: 2

Row | Binder | Kd (VEGF165 [1]) [nM] | Kd (VEGF165 [2]) [nM]
1 | B1 | 0.09 | –
2 | B2 | 0.2 | –
3 | B3 | 0.07 | –
4 | B4 | 0.02 | –
5 | B5 | – | > 100
